Measured values from the supplement of paper PMC12764529.
± gives the half width of the 95% confidence interval.

Assay: folding stability dG unfold from chymotrypsin proteolysis; higher = more stable
How it was run: (§1)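 How resistant each design was to proteolysis was captured as K50, inferred by Bayesian fitting of sequencing counts. Unfolding free energy was then derived relative to a sequence-predicted unfolded-state K50 and a shared folded-state K50, per protease or combined. Digestion used trypsin and chymotrypsin at 11 threefold-diluted concentrations plus a no-protease condition, on mini-proteins under 80 residues without cysteine in a PA-tagged cDNA display construct. Designs were kept only when AlphaFold2 dimer inter-PAE was above 15.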

| Sequence | folding stability dG unfold |
| --- | --- |
| SAGGSAGGSAGGKKIKIKINSPGNAEEVKKLLEPFGLEVDSIKENKNNPNLIIVEVNVESAGGSAGGSAGGS [r10_104_TrMRF] | 2.36 ± 0.13 kJ/mol |
| MEPPPVVVLEIEIEVPAEDEELRNMTAEELAARLAEELEALPGLKVVSVEVVEVEERPDGTLRVRIRVTIES [r1_484_TrROS_Hall] | 9.69 ± 0.586 kJ/mol |
| SAGGSAGGSAGGMEIIEKEETLDEETLKKLEEEGVPKSEATVKVTEVIYKEEYPEEGLKSAGGSAGGSAGGS [r10_1149_JUSTAS] | -2.9 ± 1.17 kJ/mol |
| SAGGSAGGSSLLVLRELADGGVALHLIDVEPDEPVGVETVLDEFRELHPDTPPLPVLILRPDPSAGGSAGGS [r12_262_TrMRF] | -0.533 ± 0.586 kJ/mol |
| SAGPPGMRMVPFTIELPGKKIEIHVMEYPNGPPQYMVEIEDPNGKPKWTIMVTGPEARDLLEKAGIKFSAGG [r19_90_TrROS] | 5.15 ± 0.586 kJ/mol |
| SAGGSAGGSGKPEKVKITYTKDTNTNKYTATITFENGPTYKITFPTKTPEEAIEQAKKLIEASSAGGSAGGS [r12_339_TrMRF] | 8.58 ± 0.134 kJ/mol |
| SAGGSAGGKPTYYVAEVTYPGNLKATVVVEDKDNLTFVIPDTGEVWDLTDLDDIKITPVSADDPSAGGSAGG [r6_222_TrMRF] | 3.97 ± 0.586 kJ/mol |
| SAGGSAGMPLVTAPVTRDPNSDVVTLTVYDPRTGETHTYTSPGSVEEAVEAFREATGLPISEVVLESAGGSA [r15_101_JUSTAS] | 6.02 ± 0.238 kJ/mol |
| SMVVERDPDGVLRVYASPEEAERIVAELKAAGLDARVEAFDPETGVWVIPVRPVPPAGLEPTPENQALNRVS [r1_78_JUSTAS] | 5.15 ± 0.305 kJ/mol |
| SAGGDKLEDLPLEDVEVLRVEVIPLPDGGVLVVFEFKVSDEEGPERLVRVVVLVENDEARVFVEPLGSAGGS [r16_469_TrMRF] | 13.4 ± 0.339 kJ/mol |
| SAGGMIKIEVEKKDDKLIIRIEVDGKKYEIEIPKDMTLEEALKKALEELKEKFPGKKIKIKKVEIFKPSAGG [r13_884_TrROS_Hall] | 9.23 ± 0.368 kJ/mol |
| SAGKDEKLVKVIVKFNDKTFEVVVKEEDLKKLVESGILKVVGKIPGKNIVAIKVEVPPPKGDPVGPTPVSAG [r5_868_TrMRF] | 11.8 ± 0.586 kJ/mol |
| SAGGSEIRVEYDPSTGELRVLIVLPDGSVILKTVRVEPIDPGIAPDGSPIGAAVSISVEIVPPGELSAGGSA [r2_195_TrMRF] | 14.6 ± 0.155 kJ/mol |
| GMNLKETTVTIPLKVKSEEEAKKKAEEIANELKKKYPDIIEIKIEIKEIDKETGIVIITIKFKAKNSSVLLS [r1_52_JUSTAS] | 5.32 ± 0.586 kJ/mol |
| SAGMVLKITVKDKKTKEEREIVIEIPEDDPELKKLGIKSPEELAKKLAEELKKEGIEVEEVKVEAYPLPSAG [r5_722_TrROS_Hall] | 8.54 ± 0.351 kJ/mol |
| SAGGSAGGSMKLTLESASPDPNKVTYTIKFPGGETLTEELPEEEIEKRSKELGWNIKLFGPTKSAGGSAGGS [r12_676_JUSTAS] | 0.41 ± 1.76 kJ/mol |
| SAGGSAGGSAGGSFDIEQERNPENGYHRVTIDFPNGPPVEIWMPPGSTLEQIEDLAKQFSAGGSAGGSAGGS [r4_205_TrROS] | 2.75 ± 0.418 kJ/mol |
| SAGGSAGGPPPYYMVEIEIERRNPKNGKKQKFPVTVIMPPKEAEKIKDELEEWGYEIKVDVHPISAGGSAGG [r6_97_TrROS] | 1.64 ± 0.276 kJ/mol |
| SAKLPEGAVVVIEDIEEKEVNGKKYKTIKISVYDKKNKGKLIAETEIVVENGKIVEKKVKVKKVSKEELSAG [r14_651_TrROS_Hall] | 8.59 ± 0.586 kJ/mol |
| SMTIRIVDEKTKEVREIKIENLTVEKEKDGRYRMTREQVLEALKKLLPEDVKIVEVEENEDGELTIVVEPSA [r9_997_TrROS_Hall] | 12.16 ± 0.105 kJ/mol |
| SAGGNIKIEVYRSPDYYMIRIKLDGKPYEIPIDPGNTEEEAAEQALDNLQEKFPDKPIKIKDVEIYPYSAGG [r13_884_TrROS] | 2.15 ± 1.76 kJ/mol |

Assay: folding stability dG unfold (combined trypsin and chymotrypsin); higher = more stable
How it was run: as §1

| Sequence | folding stability dG unfold |
| --- | --- |
| SKTIVIELENIEDMTKEELKNLIKELAEKGETVKVTILNKDGKEVKTIEIKPGEIVPFPKGSKVLIKIEKSA [r9_264_TrROS_Hall] | 5.72 ± 0.628 kJ/mol |
| SAMTYTLTPAGGKTITVTLNPDGSITITSTSTSSSLPLSPDAKITSVTFDAATGTITITLNSKPITIPASAG [r14_276_JUSTAS] | 8.05 ± 0.628 kJ/mol |
| SAGGSAGGSAGGDLNDAEIIDIYRDPDSDYYYAVFRGPDGGTYLVRFDPNSDRVEVIPLSAGGSAGGSAGGS [r10_674_TrMRF] | 12.8 ± 0.247 kJ/mol |
| SAGLDIKKIEFDPNGYLRIEVVYDKNISIKEIIEEIKKLTGATVEKVEVKPTKNGVKAIFILKIDKNLKSAG [r5_774_TrMRF] | 10.9 ± 0.46 kJ/mol |
| SAGGSAPVVEYEFVDPGNGRKVKIEVYPHPDGNYQMSIEVYDPGKPVEKIPFWMPPGEMPIEDLLKSAGGSA [r15_147_TrROS] | 2.36 ± 0.544 kJ/mol |
| SAGGSAPEDNYVVLIFIDISIEWKPKYDEDNGKNRIEFEWKLEIDIPTIVLPPDDPEAKDLLEDLLSAGGSA [r15_470_TrROS] | 12.3 ± 0.502 kJ/mol |
| SAGGSAGGSAGGPKAIVTEVEVEPNTGKARLKVKVYDPVTGKFSEFEVEVETTGKDLNLSAGGSAGGSAGGS [r10_173_TrMRF] | 7.9 ± 0.46 kJ/mol |
| SAGGILDLAAERNAVSVEVLEVNPEPPTVTVRLTYRNAAGEPRTATFTVELPPPAPPVPLVLPGEATFSAGG [r13_608_TrMRF] | 7.75 ± 0.372 kJ/mol |
| SAGGSAGGSAKPNKKFKFELVEVKEIEIYDKETNEKVYKISVAKVRLEDGSLLTFISIEEKSAGGSAGGSAG [r3_166_TrROS_Hall] | 13.3 ± 0.92 kJ/mol |
| SAGGSAGGSAGGGMPSYVTKTTTTTVKITNTTTGGNSTTTTTSTVTVTTTTLLPPGLLASAGGSAGGSAGGS [r10_300_JUSTAS] | 3.49 ± 0.31 kJ/mol |
| SAGGSAGGSAGSMTLSTSTSTTPTSLTTTTTTTTYDPTTGTTTTTSTTTTTALPAAPPSSTASAGGSAGGSA [r18_16_JUSTAS] | 5.72 ± 0.544 kJ/mol |
| SAGGSAGGSKPKEIETVTLKLTLKDPETGEEIEVTVELTRVRVDGKEYLILRVTDPDGKEIELSAGGSAGGS [r12_283_TrROS_Hall] | 15.9 ± 0.377 kJ/mol |
| SAGGSAGGSAGGMPLVRIEVTNENGEKFTFIFESEEEAKAAAEALGVDVKIEKIPPGEEISAGGSAGGSAGG [r7_456_TrROS_Hall] | 12.2 ± 0.586 kJ/mol |
| SAGGSAGGSAGGGMKVEKEESPDSTVTETITDPSSENTTIVTKEVLPDGSLKVTETKELPSAGGSAGGSAGG [r7_828_JUSTAS] | 3 ± 0.586 kJ/mol |
| SAGGSAGGSAMTLNVPDAGGKTYTVEVLSYDPVKNTWTLLNPSTSETITITAEEAAKIKAAASAGGSAGGSA [r18_161_JUSTAS] | 8.79 ± 0.46 kJ/mol |
| SAGGSAGGSAGGSLETRPVLLILKDEEGKPYAVARLEVRELPNGGVEVTVTEIVPAEELSAGGSAGGSAGGS [r4_117_TrMRF] | 5.69 ± 0.46 kJ/mol |
| SAGGNWIWRIKFPGRSIHFNWEQGNIEIWPPDGEEKTIPLPPGEPLEEFADEFAEKNGFDKVEIEPVPSAGG [r13_852_TrROS] | 8.15 ± 0.879 kJ/mol |
| SAGGSGPLLERALEEIREALAKAKEGEEVEIEVKVTVTGPDGRTREFTFRIRFVVKDGKIVKVEIESAGGSA [r2_173_TrROS_Hall] | 19.5 ± 0.586 kJ/mol |
| SAGGSAGGSAGGLSLKVKNKKTGKWYDIESIEVKKDPSSGKPVIKIKTSGPKEVEKELVSAGGSAGGSAGGS [r10_663_TrMRF] | -1.42 ± 1.67 kJ/mol |
| SAGGSAGGSAGGGSMPVTERIPGSPSSVTTTTFPDGTVTTETTAGPPVTLSPAGGSTLVSAGGSAGGSAGGS [r10_664_JUSTAS] | 4.52 ± 0.46 kJ/mol |
| SAMIEIEAVFPPNVSLEEAVEAVKAEIESKGFEILEVKVEKLPNGEVLVRAVVKVKPEMPPEEIKKLAESAG [r14_110_TrMRF] | 8.65 ± 0.795 kJ/mol |

| Sequence | folding stability dG unfold |
| --- | --- |
| SAGGSAGGSAGGKKIKIKINSPGNAEEVKKLLEPFGLEVDSIKENKNNPNLIIVEVNVESAGGSAGGSAGGS [r10_104_TrMRF] | 1.01 ± 0.46 kJ/mol |
| MEPPPVVVLEIEIEVPAEDEELRNMTAEELAARLAEELEALPGLKVVSVEVVEVEERPDGTLRVRIRVTIES [r1_484_TrROS_Hall] | 15 ± 3.31 kJ/mol |
| SAGGSAGGSAGGMEIIEKEETLDEETLKKLEEEGVPKSEATVKVTEVIYKEEYPEEGLKSAGGSAGGSAGGS [r10_1149_JUSTAS] | -0.574 ± 1.42 kJ/mol |
| SAGGSAGGSSLLVLRELADGGVALHLIDVEPDEPVGVETVLDEFRELHPDTPPLPVLILRPDPSAGGSAGGS [r12_262_TrMRF] | 0.481 ± 0.305 kJ/mol |
| SAGPPGMRMVPFTIELPGKKIEIHVMEYPNGPPQYMVEIEDPNGKPKWTIMVTGPEARDLLEKAGIKFSAGG [r19_90_TrROS] | 4.22 ± 0.418 kJ/mol |
| SAGGSAGGSGKPEKVKITYTKDTNTNKYTATITFENGPTYKITFPTKTPEEAIEQAKKLIEASSAGGSAGGS [r12_339_TrMRF] | 8.1 ± 0.628 kJ/mol |
| SAGGSAGGKPTYYVAEVTYPGNLKATVVVEDKDNLTFVIPDTGEVWDLTDLDDIKITPVSADDPSAGGSAGG [r6_222_TrMRF] | 3.35 ± 0.305 kJ/mol |
| SAGGSAGMPLVTAPVTRDPNSDVVTLTVYDPRTGETHTYTSPGSVEEAVEAFREATGLPISEVVLESAGGSA [r15_101_JUSTAS] | 6.31 ± 0.414 kJ/mol |
| SMVVERDPDGVLRVYASPEEAERIVAELKAAGLDARVEAFDPETGVWVIPVRPVPPAGLEPTPENQALNRVS [r1_78_JUSTAS] | 4.03 ± 0.297 kJ/mol |
| SAGGDKLEDLPLEDVEVLRVEVIPLPDGGVLVVFEFKVSDEEGPERLVRVVVLVENDEARVFVEPLGSAGGS [r16_469_TrMRF] | 12.2 ± 0.544 kJ/mol |
| SAGGMIKIEVEKKDDKLIIRIEVDGKKYEIEIPKDMTLEEALKKALEELKEKFPGKKIKIKKVEIFKPSAGG [r13_884_TrROS_Hall] | 9.86 ± 1.17 kJ/mol |
| SAGKDEKLVKVIVKFNDKTFEVVVKEEDLKKLVESGILKVVGKIPGKNIVAIKVEVPPPKGDPVGPTPVSAG [r5_868_TrMRF] | 10.5 ± 0.711 kJ/mol |
| SAGGSEIRVEYDPSTGELRVLIVLPDGSVILKTVRVEPIDPGIAPDGSPIGAAVSISVEIVPPGELSAGGSA [r2_195_TrMRF] | 14.2 ± 0.364 kJ/mol |
| GMNLKETTVTIPLKVKSEEEAKKKAEEIANELKKKYPDIIEIKIEIKEIDKETGIVIITIKFKAKNSSVLLS [r1_52_JUSTAS] | 8.36 ± 2.3 kJ/mol |
| SAGMVLKITVKDKKTKEEREIVIEIPEDDPELKKLGIKSPEELAKKLAEELKKEGIEVEEVKVEAYPLPSAG [r5_722_TrROS_Hall] | 7.46 ± 1.05 kJ/mol |
| SAGGSAGGSMKLTLESASPDPNKVTYTIKFPGGETLTEELPEEEIEKRSKELGWNIKLFGPTKSAGGSAGGS [r12_676_JUSTAS] | -0.388 ± 1.17 kJ/mol |
| SAGGSAGGSAGGSFDIEQERNPENGYHRVTIDFPNGPPVEIWMPPGSTLEQIEDLAKQFSAGGSAGGSAGGS [r4_205_TrROS] | 3.67 ± 0.502 kJ/mol |
| SAGGSAGGPPPYYMVEIEIERRNPKNGKKQKFPVTVIMPPKEAEKIKDELEEWGYEIKVDVHPISAGGSAGG [r6_97_TrROS] | 3.1 ± 0.753 kJ/mol |
| SAKLPEGAVVVIEDIEEKEVNGKKYKTIKISVYDKKNKGKLIAETEIVVENGKIVEKKVKVKKVSKEELSAG [r14_651_TrROS_Hall] | 6.75 ± 0.586 kJ/mol |
| SMTIRIVDEKTKEVREIKIENLTVEKEKDGRYRMTREQVLEALKKLLPEDVKIVEVEENEDGELTIVVEPSA [r9_997_TrROS_Hall] | 11.6 ± 0.347 kJ/mol |
| SAGGNIKIEVYRSPDYYMIRIKLDGKPYEIPIDPGNTEEEAAEQALDNLQEKFPDKPIKIKDVEIYPYSAGG [r13_884_TrROS] | 2.37 ± 1.17 kJ/mol |
